Laboratory results as given in patent US20230181748A1 (published 2023).
Like-named read-outs stand apart in the source and are kept apart here. Each block holds one binder with its values, some of them ahead of it. Non-standard residues stand in square brackets, D forms with d. No end group written: not given here. pomalidomide = small molecule targeting Cereblon, fused after the C-terminal end; Hyp = O=C(O)[C@@H]1C[C@@H](O)CN1

Legend:
Assay in all cases: MST
[1] = molecular target: T1, atto-633-labeled preformed tau aggregates (UniProt P10636 1-441, atto-633 label, site not stated)
T1 sequence (P10636 other isoform, or with tags, fused parts or gaps): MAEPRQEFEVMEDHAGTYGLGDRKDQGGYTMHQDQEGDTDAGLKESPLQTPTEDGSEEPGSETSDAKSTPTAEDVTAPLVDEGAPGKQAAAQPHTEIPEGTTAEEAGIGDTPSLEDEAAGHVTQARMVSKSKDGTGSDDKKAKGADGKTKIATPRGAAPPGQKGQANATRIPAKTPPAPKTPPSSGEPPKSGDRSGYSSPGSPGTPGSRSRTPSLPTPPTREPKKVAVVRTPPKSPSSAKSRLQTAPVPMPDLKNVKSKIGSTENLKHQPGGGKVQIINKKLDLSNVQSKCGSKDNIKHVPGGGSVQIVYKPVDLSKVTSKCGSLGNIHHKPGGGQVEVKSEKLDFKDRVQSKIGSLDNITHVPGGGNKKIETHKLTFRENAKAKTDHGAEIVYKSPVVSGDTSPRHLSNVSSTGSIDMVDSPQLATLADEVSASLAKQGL

[2] = molecular target: preformed, sonicated Aβ aggregates (UniProt P05067 672-713)
Sequence of preformed, sonicated Aβ aggregates (P05067 672-713): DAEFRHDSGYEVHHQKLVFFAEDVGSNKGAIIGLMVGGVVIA

[3] = molecular target: T1, atto-633-labeled preformed tau …; remark: listed apart in the source
[4] = molecular target: T1, atto-633-labeled preformed tau …; remark: listed apart in the source
[5] = molecular target: atto-633-labeled tau monomers (UniProt P10636 1-441, atto-633 label, site not stated)
Sequence of atto-633-labeled tau monomers (P10636 other isoform, or with tags, fused parts or gaps): as the sequence (P10636 other isoform, or with tags, fused parts or gaps) above

Binder: MVWGVVGSKLWFFA [AbCap_3]
Kd [1]: 4.65 µM
Kd [2]: 4.94 µM

Binder: WQIVYKGSVWMINK-pomalidomide (also: pomalidomide link chemistry not described) [HET-pomalidomide]
Kd [4]: 4.8 µM
Kd [5]: ~10.9 µM

Binder: WQIVYKGSVWMINKGSGSALA[Hyp]YIP [HET fused to the VHL-moiety]
Kd [3]: 3.3 µM

Binder: MVWGVVGSKWVFFA [AbCap_4]
Kd [2]: 1.55 µM

The remaining lines, values ahead:

Kd [3]: ~3.3 µM
Binder: WQIVYKGSVWMINK [HET]

Kd [4]: 2.2 µM
Binder: WQIVYKGSVWMINKGSGSNLLRLTGW [HET_JAV]

Kd [2]: 6.08 µM
Binder: GWVVIAGSKLKFFA [AbCap_19]
